This is an account of results in patent US20200190192A1 (SUTRO BIOPHARMA, published 2020).

Substitutions are numbered along the chain they refer to. Numbers in names are those of the source.

In test [1] the target is PD-1 (SPR analyte of the PD-1 kinetics) (Homo sapiens (Human), UniProt Q15116 25-167, limits assumed). Description: SPR, PD-1 kinetics. For orientation: In SPR one partner is held on a chip, and binding of the other changes the refractive index at the surface.
Test [2] addresses T1, human PD-1 expressed on CHO cells (human, UniProt Q15116 25-288).
T1 construct: also called hPD-1; CHO-hPD-1
Description: hPD-1 binding titration (format not named; taken as cell binding).

Test [3] deals with T2, biotinylated recombinant human PD-1 (AcroBiosystems) (human, UniProt Q15116 25-167, limits assumed, biotinylated (sites not given)).
T2 construct: Bought protein; also called biotinylated PD-1
Description: competition, flow cytometry: biotin-PD-1 binding to CHO-human PD-L1 cells.

In test [4] the target is T3, human Tim-3 (Biacore analyte; TIM-3-Fc or TIM-3-HIS, not said which) (human, UniProt Q8TDQ0 22-202).
T3 construct: also called TIM-3 antigen; not shown: Fc or HIS tag
The experiment in a line: SPR, Tim-3 analyte.

In test [5] the target is T1, human PD-1 expressed on CHO cells. The experiment in a line: flow cytometry, CHO-human PD-1 cells. Details: Bmax: unit not given here.
Test [6] deals with T4, human Tim-3 expressed on the cell surface (human, UniProt Q8TDQ0 22-301).
T4 construct: also called hTim-3; Human Tim-3 (CHO)
Description: flow cytometry, CHO-human Tim-3 cells. Further details: Bmax: unit not given here.

B1: 1353-G10 vk1-39 LC IgG (antibody, V domains shown)
VH: EVQLVQSGAEVKKPGASVKVSCKASGYRFPHYGISWVRQAPGQGLEWMGWISAYNGNTNYAQKLQGRVTMTTDTSTNTAYMELRSLRSDDTAVYYCARDVDYGTGSGYWGQGTLVTVSS
VL: DIQLTQSPSSLSASVGDRVTITCSGDALPKQYAYWYQQKPGKAPKLLIYKDTERPSGVPSRFSGSSSGTKVTLTISSLQPEDFATYYCQSADNSITYRVFGGGTKVEIK
notes: IgG; also called Sample K
As a reminder, the Kd is the free concentration of one partner at which half of the binding sites on the other are occupied at equilibrium, for simple one-to-one binding. As usually defined, the koff is a measure of how fast the partners let go of each other. What is called kon is the rate constant with which the complex forms. As to B1, in test [1], the dissociation constant Kd amounted to 0.85 nM, the dissociation rate constant (koff) stood at 0.00049 s⁻¹ and the association rate constant (kon) came to 580000 M⁻¹ s⁻¹. In test [2], this molecule had a Bmax of 3630 and a Kd of 0.8 nM.

B2: 1353-G10 scFvFc-zwB × 1649-A01 Fab-zwA (parent) (bispecific antibody)
scFv: not shown
VH: EVQLVESGGGLVQPGGSLRLSCAASGFNISRYYIHWVRQAPGKGLEWVAGITPVRGYTEYADSVKDRFTISADTSKNTAYLQMNSLRAEDTAVYYCARGYVYRMWDSYDYWGQGTLVTVSS
VL: not shown
notes: Tim-3 heavy chain carries zwA (T350V/L351Y/F405A/Y407V) in CH3
What is called IC50 is the concentration at which inhibition is half-maximal. On to B2, for which, in test [3], the concentration for half-maximal inhibition (IC50) is 191 nM. For the same molecule, the figures for the equilibrium dissociation constant (Kd) in test [4], in test [5] and in test [6] were 12 nM, 1.4 nM and 3.9 nM, respectively. The Bmax in test [5] is 13300; in test [6], 14700.

B3: 1353-G10 scFvFc-zwB × 1649-A01 Hc zwA S30D/R31D/Y56D/TrstmbLC S56D (bispecific antibody)
scFv: not shown
VH: B2 VH with S30D, R31D, Y57D
VL: not shown
notes: Tim-3 heavy chain with zwA CH3 mutations
In the case of B3, in test [3], the half-inhibitory concentration (IC50) came out at 147 nM. Further, the Kd in test [4] was found to be 11 nM; in test [5], 2.1 nM; in test [6], 4.3 nM. Besides, the Bmax in test [5] came to 13000; in test [6], 10900.

B4: 1353-G10 scFvFc-zwB × 1649-A01 Hc zwA R31D/Y56D/TrstmbLC S56D (bispecific antibody)
scFv: not shown
VH: B2 VH with R31D, Y57D
VL: not shown
Regarding B4, in test [3], the half-maximal inhibitory concentration (IC50) was found to be 148 nM. The figures for the dissociation constant (Kd) in test [4], in test [5] and in test [6] were 8.8 nM, 1.6 nM and 3.3 nM, respectively. For the same molecule, the results for the Bmax in test [5] and in test [6] were 12600 and 11400, respectively.

B5: 1353-G10 scFvFc-zwB × 1649-A01 Hc zwA S30D/R31D/TrstmbLC S56D (bispecific antibody)
scFv: not shown
VH: B2 VH with S30D, R31D
VL: not shown
notes: as for B3
As for B5, in test [3], the IC50 was found to be 138 nM. Moreover, the dissociation constant (Kd) in test [4] amounted to 8.7 nM; in test [5], 1.1 nM; in test [6] it was 3.7 nM. Also, the Bmax in test [5] is 9860; in test [6], 10500.

B6: 1353-G10 scFvFc-zwB × 1649-A01 Hc zwA S30D/Y56D/TrstmbLC S56D (bispecific antibody)
scFv: not shown
VH: B2 VH with S30D, Y57D
VL: not shown
notes: Tim-3 heavy chain with zwA CH3 mutations; also called 1649-A01 Hc zwA S30D/Y56D/TrsimbLC S56D
On to B6, for which, in test [3], the IC50 worked out at 108 nM. Also, the Kd is 9.7 nM in test [4], 1.2 nM in test [5] and 3.6 nM in test [6]. Also, the Bmax was 9650 in test [5] and 10000 in test [6].

B7: 1353-G10 scFvFc-zwB × 1649-A01 Hc zwA R31D/TrstmbLC S56D (bispecific antibody)
scFv: not shown
VH: B2 VH with R31D
VL: not shown
notes: as for B3
Regarding B7, the IC50 in test [3] turned out to be 117 nM. The Kd in test [4] was 8.6 nM; in test [5], 2.7 nM; in test [6], 3.5 nM. For the same molecule, the Bmax in test [5] is 14000; in test [6] it was 11300.

B8: 1353-G10 scFvFc-zwB × 1649-A01 Hc zwA S30D/TrstmbLC S56D (bispecific antibody)
scFv: not shown
VH: B2 VH with S30D
VL: not shown
notes: as for B3
Take B8: the IC50 in test [3] was found to be 128 nM. Also, the Kd in test [4] is 7.1 nM; in test [5], 1.3 nM; in test [6], 3.2 nM. Also, the Bmax in test [5] stood at 12500; in test [6], 11700.
